Measured values reported in publication PMC4788495 (Journal of bioenergetics and biomembranes, 2008).

B2: cytochrome b S287R, subunit of the double mutant S287R(cyt b)/V135S(ISP) Rsbc1 (natural protein, R. sphaeroides, UniProt Q02761 1-445, looked up)
chain: MSGIPHDHYEPRTGIEKWLHSRLPIVALAYDTIMIPTPRNLNWMWIWGVVLAFCLVLQIVTGIVLAMHYTPHVDLAFASVEHIMRNVNGGFMLRYLHANGASLFFIAVYLHIFRGLYYGSYKAPREVTWIVGMLIYLAMMATAFMGYVLPWGQMSFWGATVITGLFGAIPGIGHSIQTWLLGGPAVDNATLNRFFSLHYLLPFVIAALVAIHIWAFHSTGNNNPTGVEVRRTSKAEAQKDTVPFWPYFIIKDVFALAVVLLVFFAIVGFMPNYLGHPDNYIEANPLRTPAHIVPEWYFLPFYAILRAFTADVWVVQIANFISFGIIDAKFFGVLAMFGAILVMALVPWLDTSPVRSGRYRPMFKIYFWLLAADFVILTWVGAQQTTFPYDWISLIASAYWFAYFLVILPILGAIEKPVAPPATIEEDFNAHYSPATGGTKTVVAE
B4: cytochrome b subunit of the wild-type R. sphaeroides cytochrome bc1 complex (Rsbc1) (natural protein)
chain: GIPHDHYEPRTGIEKWLHSRLPIVALAYDTIMIPTPRNLNWMWIWGVVLAFCLVLQIVTGIVLAMHYTPHVDLAFASVEHIMRNVNGGFMLRYLHANGASLFFIAVYLHIFRGLYYGSYKAPREVTWIVGMLIYLAMMATAFMGYVLPWGQMSFWGATVITGLFGAIPGIGHSIQTWLLGGPAVDNATLNRFFSLHYLLPFVIAALVAIHIWAFHSTGNNNPTGVEVRRTSKAEAQKDTVPFWPYFIIKDVFALAVVLLVFFAIVGFMPNYLGHPDNYIEANPLSTPAHIVPEWYFLPFYAILRAFTADVWVVQIANFISFGIIDAKFFGVLAMFGAILVMALVPWLDTSPVRSGRYRPMFKIYFWLLAADFVILTWVGAQQTTFPYDWISLIASAYWFAYFLVILPILGAIEKPVAPPATIEEDFNA

What was measured:
[1] = molecular target: B4; experiment: SEC
[2] = molecular target: B2; experiment: crystal structure
[3] = molecular target: the molecule itself; experiment: crystal structure
[4] = molecular target: B4; experiment: crystal structure
[5] = molecular target: the molecule itself; experiment: crystal structure; remark: listed apart in the source

B1: cytochrome c1 subunit of the R. sphaeroides cytochrome bc1 complex (Rsbc1), his-tag at the C-terminus (natural protein, UniProt Q02760 23-285, looked up)
chain: AGGGHVEDVPFSFEGPFGTFDQHQLQRGLQVYTEVCAACHGMKFVPIRSLSEPGGPELPEDQVRAYATQFTVTDEETGEDREGKPTDHFPHSALENAADLSLMAKARAGFHGPMGTGISQLFNGIGGPEYIYSVLTGFPEEPPKCAEGHEPDGFYYNRAFQNGSVPDTCKDANGVKTTAGSWIAMPPPLMDDLVEYADGHDASVHAMAEDVSAFLMWAAEPKLMARKQAGFTAVMFLTVLSVLLYLTNKRLWAGVKGKKKTNV
- binding result [1]: binds
- binding result [2]: binds

Binder: B2
- stoichiometry N [3]: 2

B3: Rieske iron-sulfur protein subunit of the wild-type R. sphaeroides cytochrome bc1 complex (Rsbc1) (natural protein)
chain: GTRRDFLYYATAGAGAVATGAAVWPLINQMNPSADVQALASIFVDVSSVEPGVQLTVKFLGKPIFIRRRTEADIELGRSVQLGQLVDTNARNANIDAGAEATDQNRTLDEAGEWLVMWGVCTHLGCVPIGGVSGDFGGWFCPCHGSHYDSAGRIRKGPAPENLPIPLAKFIDETTIQLG
- binding result [4]: binds

Binder: B4
- binding result [5]: binds

B5: Rieske iron-sulfur protein V135S, subunit of the double mutant S287R(cyt b)/V135S(ISP) Rsbc1 (natural protein, R. sphaeroides, UniProt Q02762 1-187, looked up)
chain: MSNAEDHAGTRRDFLYYATAGAGAVATGAAVWPLINQMNPSADVQALASIFVDVSSVEPGVQLTVKFLGKPIFIRRRTEADIELGRSVQLGQLVDTNARNANIDAGAEATDQNRTLDEAGEWLVMWGVCTHLGCSPIGGVSGDFGGWFCPCHGSHYDSAGRIRKGPAPENLPIPLAKFIDETTIQLG
- binding result [2]: binds
